Values of other authors in article PMC4452390.

Target: EGFR (Homo sapiens) (UniProt P00533)

Kd: 3 nM
Substance: EGF (from UniProt P01133)
